Experimental data published in publication PMC11772769, “Selective cargo and membrane recognition by SNX17 regulates its interaction with Retriever” (EMBO Reports, 2024).

Biological target: Peptide SNX17_(CT-18) (UniProt Q15036)
Experiment: fluorescence polarisation

Kd: 5.3 µM
Substance: VPS26C-VPS35L_(110-598) complex (from UniProt O14972 1-297; Q7Z3J2 110-598)
